# Measured values published in article PMC4760375, “A dual phosphorylation switch controls 14-3-3-dependent cell surface expression of TASK-1” (Journal of Cell Science, 2016).
# Non-standard residues stand in square brackets, D forms with d. No end group written: not given here. pS = N[C@@H](COP(=O)(O)O)C(=O)O
# T1: 14-3-3ε (human, UniProt P62258 1-255)
# T1 chain: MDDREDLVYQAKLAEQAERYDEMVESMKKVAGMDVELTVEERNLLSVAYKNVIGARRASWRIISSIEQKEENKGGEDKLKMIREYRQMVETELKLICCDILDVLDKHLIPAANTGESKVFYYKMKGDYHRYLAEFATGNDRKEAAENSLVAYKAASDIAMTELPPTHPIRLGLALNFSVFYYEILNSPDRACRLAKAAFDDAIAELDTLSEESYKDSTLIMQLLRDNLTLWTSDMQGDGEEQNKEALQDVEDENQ
# T2: 14-3-3β (human, UniProt P31946 1-246)
# T2 chain: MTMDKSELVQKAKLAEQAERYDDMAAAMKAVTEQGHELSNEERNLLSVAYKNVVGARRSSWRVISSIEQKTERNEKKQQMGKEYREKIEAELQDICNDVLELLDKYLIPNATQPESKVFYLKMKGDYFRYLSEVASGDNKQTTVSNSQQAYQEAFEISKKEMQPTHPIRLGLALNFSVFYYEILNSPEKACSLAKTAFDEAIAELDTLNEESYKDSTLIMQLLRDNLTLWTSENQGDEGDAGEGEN
# T3: 14-3-3σ (human, UniProt P31947 1-248)
# T3 chain: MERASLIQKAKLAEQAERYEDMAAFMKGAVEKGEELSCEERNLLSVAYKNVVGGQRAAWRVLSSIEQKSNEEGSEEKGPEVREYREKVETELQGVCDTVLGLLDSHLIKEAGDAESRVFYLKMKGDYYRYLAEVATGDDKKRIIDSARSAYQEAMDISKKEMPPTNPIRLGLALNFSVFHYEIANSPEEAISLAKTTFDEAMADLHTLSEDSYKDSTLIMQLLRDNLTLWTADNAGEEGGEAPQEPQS
# T4: 14-3-3η (human, UniProt Q04917 1-246)
# T4 chain: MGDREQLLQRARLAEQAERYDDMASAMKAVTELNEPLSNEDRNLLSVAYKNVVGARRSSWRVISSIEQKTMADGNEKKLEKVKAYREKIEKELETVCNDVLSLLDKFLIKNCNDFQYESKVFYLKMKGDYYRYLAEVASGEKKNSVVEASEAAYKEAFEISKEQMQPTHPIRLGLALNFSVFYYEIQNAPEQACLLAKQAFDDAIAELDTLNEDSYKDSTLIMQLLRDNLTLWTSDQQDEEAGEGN
# T5: 14-3-3γ (human, UniProt P61981 1-247)
# T5 chain: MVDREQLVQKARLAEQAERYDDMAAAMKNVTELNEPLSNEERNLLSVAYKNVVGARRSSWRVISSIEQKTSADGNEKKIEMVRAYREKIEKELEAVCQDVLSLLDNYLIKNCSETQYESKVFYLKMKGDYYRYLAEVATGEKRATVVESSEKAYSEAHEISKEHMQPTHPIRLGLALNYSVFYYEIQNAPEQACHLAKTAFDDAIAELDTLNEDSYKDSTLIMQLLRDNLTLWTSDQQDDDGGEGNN
# T6: 14-3-3ζ (human, UniProt P63104 1-245)
# T6 chain: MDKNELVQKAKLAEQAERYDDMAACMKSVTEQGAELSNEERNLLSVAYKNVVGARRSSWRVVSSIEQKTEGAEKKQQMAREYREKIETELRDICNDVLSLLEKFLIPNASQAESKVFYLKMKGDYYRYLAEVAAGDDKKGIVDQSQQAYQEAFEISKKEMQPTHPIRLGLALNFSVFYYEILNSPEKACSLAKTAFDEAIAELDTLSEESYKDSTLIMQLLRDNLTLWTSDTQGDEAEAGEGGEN
# Tests used:
# [1] = biological target: GST-tagged TASK-3 C-terminal 15 residues fusion protein, phosphorylated with PKA catalytic subunit (human) (UniProt Q9NPC2); experiment: SPR; GST fusion protein captured by an anti-GST antibody on an HC1000m chip, phosphorylated on the chip with PKA catalytic subunit; 14-3-3 proteins as analyte; 20°C; 150 mM NaCl, 20 mM HEPES, 0.005% (v/v) Tween 20, pH 7.5; equilibrium binding isotherms
# [2] = biological target: TASK-1 pS392 C-terminal fluorescent peptide (human) (UniProt O14649); experiment: fluorescence polarisation; 10 nM fluorescein-labelled peptide titrated with 14-3-3 protein (1 nM to 120 µM in the results, 100 µM to 1 nM in the methods); 20 mM MOPS, 150 mM NaCl, 0.005% (v/v) CHAPS pH 7.0; room temperature; monophasic fit
# [3] = biological target: doubly phosphorylated TASK-1 C-terminal fluorescent peptide (pS392 and pS393) (human) (UniProt O14649); experiment: as above
# 14-3-3ε [4] = biological target: T1, 14-3-3ε; experiment: fluorescence polarization titration; conditions: reference: unphosphorylated peptide
# 14-3-3ζ [5] = biological target: 14-3-3ζ (UniProt P63104); experiment: fluorescence polarization titration; conditions: reference: unphosphorylated peptide
# 14-3-3β = biological target: T2, 14-3-3β; experiment: fluorescence polarization titration; conditions: reference: unphosphorylated peptide; sites S373
# 14-3-3τ = 14-3-3τ (UniProt P27348); experiment: fluorescence polarization titration; conditions: reference: unphosphorylated peptide; sites S373
# 14-3-3γ [6] = biological target: 14-3-3γ (UniProt P61981); experiment: fluorescence polarization titration; conditions: reference: unphosphorylated peptide
# 14-3-3η [7] = biological target: 14-3-3η (UniProt Q04917); experiment: fluorescence polarization titration; conditions: reference: unphosphorylated peptide; sites S393
# 14-3-3σ [8] = biological target: T3, 14-3-3σ; experiment: fluorescence polarization titration; conditions: reference: unphosphorylated peptide; sites S393
# 14-3-3ε [9] = biological target: T1, 14-3-3ε; experiment: FP
# 14-3-3η [10] = biological target: T4, 14-3-3η; experiment: FP
# 14-3-3σ [11] = biological target: T3, 14-3-3σ; experiment: FP
# 14-3-3γ [12] = biological target: T5, 14-3-3γ; experiment: FP
# 14-3-3ζ [13] = biological target: T6, 14-3-3ζ; experiment: FP
molecule,measurement,setting,value
14-3-3γ (from UniProt P61981 1-247) (natural protein),Kd,[1],0.045 µM
same,Kd,[2],100 µM
same,Kd,[3],200 µM
TASK-3 last 15 amino acids of the C-terminus (from UniProt Q9NPC2) pS373 peptide,binding against the reference,14-3-3ε [4]; sites S373,gained
same,binding against the reference,14-3-3ζ [5]; sites S373,gained
same,binding against the reference,14-3-3β,gained
same,binding against the reference,14-3-3τ,gained
same,binding against the reference,14-3-3γ [6]; sites S373,gained
TASK-1 last 15 amino acids of the C-terminus (from UniProt O14649) pS393 peptide,binding against the reference,14-3-3ε [4]; sites S393,gained
same,binding against the reference,14-3-3ζ [5]; sites S393,gained
same,binding against the reference,14-3-3η [7],gained
same,binding against the reference,14-3-3σ [8],gained
same,binding against the reference,14-3-3γ [6]; sites S393,gained
"SLSTFRGLMKRRS[pS]V (also: fluorescein label, position not given here) [TASK-1 pS393 C-terminal fluorescent peptide (last 15 amino acids)]",Kd,14-3-3ε [9],29 µM
same,Kd,14-3-3η [10],9.2 µM
same,Kd,14-3-3σ [11],36 µM
same,Kd,14-3-3γ [12],9.8 µM
same,Kd,14-3-3ζ [13],23 µM
